According to patent publication US12679878B2, “CRF2 receptor agonists and their use in therapy” (SANOFI, priority 2020, dated 2026):
Starred links: 1 amine or outer side, 2 acyl side, 3 side chain; linkers in the order of their positions; H or OH if unused. Non-standard residues stand in square brackets, D forms with d. Groups on a side chain read outwards from the residue. No end group written: not given here. *: point of attachment. C20 diacid = O=C(O)CCCCCCCCCCCCCCCCCCC(=O)*; C18 diacid = O=C(O)CCCCCCCCCCCCCCCCC(=O)*; γGlu = O=C(O)[C@H](CCC(=O)[*:2])N[*:1]; AEEA = NCCOCCOCC(=O)O; Aib = CC(C)(N)C(=O)O

B1: peptide of SEQ ID NO: 183 (peptide)
peptide: IVLSLD[dV]PIKLK(C18 diacid)QILLKQARQK[Aib]QRAQAEKNKRILERV-NH2
modifications: N-terminus assumed
SMILES: CC[C@H](C)[C@H](N)C(=O)N[C@H](C(=O)N[C@@H](CC(C)C)C(=O)N[C@@H](CO)C(=O)N[C@@H](CC(C)C)C(=O)N[C@@H](CC(=O)O)C(=O)N[C@@H](C(=O)N1CCC[C@H]1C(=O)N[C@H](C(=O)N[C@@H](CCCCN)C(=O)N[C@@H](CC(C)C)C(=O)N[C@@H](CCCCNC(=O)CCCCCCCCCCCCCCCCC(=O)O)C(=O)N[C@@H](CCC(N)=O)C(=O)N[C@H](C(=O)N[C@@H](CC(C)C)C(=O)N[C@@H](CC(C)C)C(=O)N[C@@H](CCCCN)C(=O)N[C@@H](CCC(N)=O)C(=O)N[C@@H](C)C(=O)N[C@@H](CCCNC(=N)N)C(=O)N[C@@H](CCC(N)=O)C(=O)N[C@@H](CCCCN)C(=O)NC(C)(C)C(=O)N[C@@H](CCC(N)=O)C(=O)N[C@@H](CCCNC(=N)N)C(=O)N[C@@H](C)C(=O)N[C@@H](CCC(N)=O)C(=O)N[C@@H](C)C(=O)N[C@@H](CCC(=O)O)C(=O)N[C@@H](CCCCN)C(=O)N[C@@H](CC(N)=O)C(=O)N[C@@H](CCCCN)C(=O)N[C@@H](CCCNC(=N)N)C(=O)N[C@H](C(=O)N[C@@H](CC(C)C)C(=O)N[C@@H](CCC(=O)O)C(=O)N[C@@H](CCCNC(=N)N)C(=O)N[C@H](C(N)=O)C(C)C)[C@@H](C)CC)[C@@H](C)CC)[C@@H](C)CC)C(C)C)C(C)C
B2: peptide of SEQ ID NO: 174 (peptide)
peptide: IVLSLD[dV]PIKLK([AEEA-AEEA-γGlu-γGlu-C18 diacid])QILLKQARQK[Aib]QRAQAEKNKRILERV-NH2
modifications: N-terminus assumed
SMILES: CC[C@H](C)[C@H](N)C(=O)N[C@H](C(=O)N[C@@H](CC(C)C)C(=O)N[C@@H](CO)C(=O)N[C@@H](CC(C)C)C(=O)N[C@@H](CC(=O)O)C(=O)N[C@@H](C(=O)N1CCC[C@H]1C(=O)N[C@H](C(=O)N[C@@H](CCCCN)C(=O)N[C@@H](CC(C)C)C(=O)N[C@@H](CCCCNC(=O)COCCOCCNC(=O)COCCOCCNC(=O)CC[C@H](NC(=O)CC[C@H](NC(=O)CCCCCCCCCCCCCCCCC(=O)O)C(=O)O)C(=O)O)C(=O)N[C@@H](CCC(N)=O)C(=O)N[C@H](C(=O)N[C@@H](CC(C)C)C(=O)N[C@@H](CC(C)C)C(=O)N[C@@H](CCCCN)C(=O)N[C@@H](CCC(N)=O)C(=O)N[C@@H](C)C(=O)N[C@@H](CCCNC(=N)N)C(=O)N[C@@H](CCC(N)=O)C(=O)N[C@@H](CCCCN)C(=O)NC(C)(C)C(=O)N[C@@H](CCC(N)=O)C(=O)N[C@@H](CCCNC(=N)N)C(=O)N[C@@H](C)C(=O)N[C@@H](CCC(N)=O)C(=O)N[C@@H](C)C(=O)N[C@@H](CCC(=O)O)C(=O)N[C@@H](CCCCN)C(=O)N[C@@H](CC(N)=O)C(=O)N[C@@H](CCCCN)C(=O)N[C@@H](CCCNC(=N)N)C(=O)N[C@H](C(=O)N[C@@H](CC(C)C)C(=O)N[C@@H](CCC(=O)O)C(=O)N[C@@H](CCCNC(=N)N)C(=O)N[C@H](C(N)=O)C(C)C)[C@@H](C)CC)[C@@H](C)CC)[C@@H](C)CC)C(C)C)C(C)C
B3: peptide of SEQ ID NO: 173 (peptide)
peptide: IVLSLD[dV]PIKLK([AEEA-AEEA-γGlu-C20 diacid])QILLKQERQK[Aib]QREQAEKNKQILAQV-NH2
modifications: N-terminus assumed
SMILES: CC[C@H](C)[C@H](N)C(=O)N[C@H](C(=O)N[C@@H](CC(C)C)C(=O)N[C@@H](CO)C(=O)N[C@@H](CC(C)C)C(=O)N[C@@H](CC(=O)O)C(=O)N[C@@H](C(=O)N1CCC[C@H]1C(=O)N[C@H](C(=O)N[C@@H](CCCCN)C(=O)N[C@@H](CC(C)C)C(=O)N[C@@H](CCCCNC(=O)COCCOCCNC(=O)COCCOCCNC(=O)CC[C@H](NC(=O)CCCCCCCCCCCCCCCCCCC(=O)O)C(=O)O)C(=O)N[C@@H](CCC(N)=O)C(=O)N[C@H](C(=O)N[C@@H](CC(C)C)C(=O)N[C@@H](CC(C)C)C(=O)N[C@@H](CCCCN)C(=O)N[C@@H](CCC(N)=O)C(=O)N[C@@H](CCC(=O)O)C(=O)N[C@@H](CCCNC(=N)N)C(=O)N[C@@H](CCC(N)=O)C(=O)N[C@@H](CCCCN)C(=O)NC(C)(C)C(=O)N[C@@H](CCC(N)=O)C(=O)N[C@@H](CCCNC(=N)N)C(=O)N[C@@H](CCC(=O)O)C(=O)N[C@@H](CCC(N)=O)C(=O)N[C@@H](C)C(=O)N[C@@H](CCC(=O)O)C(=O)N[C@@H](CCCCN)C(=O)N[C@@H](CC(N)=O)C(=O)N[C@@H](CCCCN)C(=O)N[C@@H](CCC(N)=O)C(=O)N[C@H](C(=O)N[C@@H](CC(C)C)C(=O)N[C@@H](C)C(=O)N[C@@H](CCC(N)=O)C(=O)N[C@H](C(N)=O)C(C)C)[C@@H](C)CC)[C@@H](C)CC)[C@@H](C)CC)C(C)C)C(C)C
B4: peptide of SEQ ID NO: 162 (peptide)
peptide: Ac-IVLSLD[dV]PIELK([AEEA-AEEA-γGlu-C18 diacid])QILLEQERQK[Aib]QREQAEKNKQILEQV-NH2
SMILES: CC[C@H](C)[C@H](NC(C)=O)C(=O)N[C@H](C(=O)N[C@@H](CC(C)C)C(=O)N[C@@H](CO)C(=O)N[C@@H](CC(C)C)C(=O)N[C@@H](CC(=O)O)C(=O)N[C@@H](C(=O)N1CCC[C@H]1C(=O)N[C@H](C(=O)N[C@@H](CCC(=O)O)C(=O)N[C@@H](CC(C)C)C(=O)N[C@@H](CCCCNC(=O)COCCOCCNC(=O)COCCOCCNC(=O)CC[C@H](NC(=O)CCCCCCCCCCCCCCCCC(=O)O)C(=O)O)C(=O)N[C@@H](CCC(N)=O)C(=O)N[C@H](C(=O)N[C@@H](CC(C)C)C(=O)N[C@@H](CC(C)C)C(=O)N[C@@H](CCC(=O)O)C(=O)N[C@@H](CCC(N)=O)C(=O)N[C@@H](CCC(=O)O)C(=O)N[C@@H](CCCNC(=N)N)C(=O)N[C@@H](CCC(N)=O)C(=O)N[C@@H](CCCCN)C(=O)NC(C)(C)C(=O)N[C@@H](CCC(N)=O)C(=O)N[C@@H](CCCNC(=N)N)C(=O)N[C@@H](CCC(=O)O)C(=O)N[C@@H](CCC(N)=O)C(=O)N[C@@H](C)C(=O)N[C@@H](CCC(=O)O)C(=O)N[C@@H](CCCCN)C(=O)N[C@@H](CC(N)=O)C(=O)N[C@@H](CCCCN)C(=O)N[C@@H](CCC(N)=O)C(=O)N[C@H](C(=O)N[C@@H](CC(C)C)C(=O)N[C@@H](CCC(=O)O)C(=O)N[C@@H](CCC(N)=O)C(=O)N[C@H](C(N)=O)C(C)C)[C@@H](C)CC)[C@@H](C)CC)[C@@H](C)CC)C(C)C)C(C)C
B5: peptide of SEQ ID NO: 182 (peptide)
peptide: IVLSLD[dV]PIKLK(C18 diacid)QILLKQERQK[Aib]QREQAEKNKQILAQV-NH2
modifications: N-terminus assumed
SMILES: CC[C@H](C)[C@H](N)C(=O)N[C@H](C(=O)N[C@@H](CC(C)C)C(=O)N[C@@H](CO)C(=O)N[C@@H](CC(C)C)C(=O)N[C@@H](CC(=O)O)C(=O)N[C@@H](C(=O)N1CCC[C@H]1C(=O)N[C@H](C(=O)N[C@@H](CCCCN)C(=O)N[C@@H](CC(C)C)C(=O)N[C@@H](CCCCNC(=O)CCCCCCCCCCCCCCCCC(=O)O)C(=O)N[C@@H](CCC(N)=O)C(=O)N[C@H](C(=O)N[C@@H](CC(C)C)C(=O)N[C@@H](CC(C)C)C(=O)N[C@@H](CCCCN)C(=O)N[C@@H](CCC(N)=O)C(=O)N[C@@H](CCC(=O)O)C(=O)N[C@@H](CCCNC(=N)N)C(=O)N[C@@H](CCC(N)=O)C(=O)N[C@@H](CCCCN)C(=O)NC(C)(C)C(=O)N[C@@H](CCC(N)=O)C(=O)N[C@@H](CCCNC(=N)N)C(=O)N[C@@H](CCC(=O)O)C(=O)N[C@@H](CCC(N)=O)C(=O)N[C@@H](C)C(=O)N[C@@H](CCC(=O)O)C(=O)N[C@@H](CCCCN)C(=O)N[C@@H](CC(N)=O)C(=O)N[C@@H](CCCCN)C(=O)N[C@@H](CCC(N)=O)C(=O)N[C@H](C(=O)N[C@@H](CC(C)C)C(=O)N[C@@H](C)C(=O)N[C@@H](CCC(N)=O)C(=O)N[C@H](C(N)=O)C(C)C)[C@@H](C)CC)[C@@H](C)CC)[C@@H](C)CC)C(C)C)C(C)C
B6: peptide of SEQ ID NO: 159 (peptide)
peptide: Ac-IVLSLD[dV]PIKLK([AEEA-AEEA-γGlu-C18 diacid])QILLEQERQE[Aib]QREQAEKNKQILEQV-NH2
SMILES: CC[C@H](C)[C@H](NC(C)=O)C(=O)N[C@H](C(=O)N[C@@H](CC(C)C)C(=O)N[C@@H](CO)C(=O)N[C@@H](CC(C)C)C(=O)N[C@@H](CC(=O)O)C(=O)N[C@@H](C(=O)N1CCC[C@H]1C(=O)N[C@H](C(=O)N[C@@H](CCCCN)C(=O)N[C@@H](CC(C)C)C(=O)N[C@@H](CCCCNC(=O)COCCOCCNC(=O)COCCOCCNC(=O)CC[C@H](NC(=O)CCCCCCCCCCCCCCCCC(=O)O)C(=O)O)C(=O)N[C@@H](CCC(N)=O)C(=O)N[C@H](C(=O)N[C@@H](CC(C)C)C(=O)N[C@@H](CC(C)C)C(=O)N[C@@H](CCC(=O)O)C(=O)N[C@@H](CCC(N)=O)C(=O)N[C@@H](CCC(=O)O)C(=O)N[C@@H](CCCNC(=N)N)C(=O)N[C@@H](CCC(N)=O)C(=O)N[C@@H](CCC(=O)O)C(=O)NC(C)(C)C(=O)N[C@@H](CCC(N)=O)C(=O)N[C@@H](CCCNC(=N)N)C(=O)N[C@@H](CCC(=O)O)C(=O)N[C@@H](CCC(N)=O)C(=O)N[C@@H](C)C(=O)N[C@@H](CCC(=O)O)C(=O)N[C@@H](CCCCN)C(=O)N[C@@H](CC(N)=O)C(=O)N[C@@H](CCCCN)C(=O)N[C@@H](CCC(N)=O)C(=O)N[C@H](C(=O)N[C@@H](CC(C)C)C(=O)N[C@@H](CCC(=O)O)C(=O)N[C@@H](CCC(N)=O)C(=O)N[C@H](C(N)=O)C(C)C)[C@@H](C)CC)[C@@H](C)CC)[C@@H](C)CC)C(C)C)C(C)C

Biological target: rat CRF2R α receptor (rat, UniProt P47866 20-411)
Sequence (P47866 20-411): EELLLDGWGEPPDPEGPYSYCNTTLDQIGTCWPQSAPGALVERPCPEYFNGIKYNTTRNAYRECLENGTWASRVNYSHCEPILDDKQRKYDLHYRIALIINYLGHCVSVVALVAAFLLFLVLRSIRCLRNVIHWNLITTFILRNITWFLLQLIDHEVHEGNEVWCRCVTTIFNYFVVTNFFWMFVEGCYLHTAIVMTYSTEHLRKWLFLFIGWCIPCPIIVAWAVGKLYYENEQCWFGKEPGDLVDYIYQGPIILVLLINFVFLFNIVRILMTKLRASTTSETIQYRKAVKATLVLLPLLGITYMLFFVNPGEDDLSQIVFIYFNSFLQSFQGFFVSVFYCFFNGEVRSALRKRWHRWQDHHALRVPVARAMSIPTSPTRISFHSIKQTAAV
Test: cell-based or functional assay

Binder	EC50 [nM], 0% HSA (cAMP, A7R5 cells) [nM]
B1	1.12
Ac-IVLSLD[dV]PIHLK([AEEA-AEEA-γGlu-C18 diacid])QILLEQERQK[Aib]QREQAEKNKQILEQV-NH2 [peptide of SEQ ID NO: 163]	1.5
B2	0.42
B3	0.83
B4	48.6
B5	0.59
B6	15.6
